As usually defined, the Km is the substrate concentration at which the rate is half of its maximum.

The source of these data is patent US12545899B2, “Luciferase enzymes for use with thermostable luciferins in bioluminescent assays” (Promega Corporation, priority 2018, dated 2026).

Holding throughout (type): biochemical
The nature of data set [1]: Luminescence at 1 mM D/L-luciferin (Table 11). The conditions noted are these: 1 mM substrate, 1 mM ATP. An excerpt:
(§1) Tables 10 and 11 include representative results of kinetic analysis of the thermostable variants with D/L luciferin, CS0333, and CS0280. […] MK0135 and MK0137 have amino acid substitutions that improve thermostability relative to MK0133 and MK0134, respectively, while retaining activity on the luciferin analogs CS0333 and CS0280.

The nature of data set [2]: Kinetic analysis of thermostable variants with D/L-luciferin (Tables 13, 14). The conditions noted are these: 2 mM ATP. The text has this: (§2) Tables 13 and 14 include representative results of kinetic analysis of the thermostable variants with D/L luciferin, CS0333, and CS0280. The panel of enzyme variants highlight amino acid substitutions that further improve upon MK0137 in maximum luminescence (Vmax) or Km in different buffers with the different substrates tested (D/L-luciferin, CS0333, and CS0280). In particular, enzyme variants MK0151 and MK153 show improvements relative to MK0137 across multiple buffers with multiple substrates.

The nature of data set [3]: Kinetic analysis of thermostable variants with CS0280 (Tables 13, 14). The conditions noted are these: 2 mM ATP.
From the text: as §2

A short description of data set [4]: Luminescence at 1 mM CS0333 (Table 11). The conditions noted are these: 1 mM substrate, 1 mM ATP.
From the text: as §1

Data set [5] in a line: Kinetic analysis of thermostable variants with CS0333 (Tables 13, 14). The note with it: 2 mM ATP.
From the text: as §2

Data set [6] in a line: Luminescence at 1 mM CS0280 (Table 11). The conditions noted are these: 1 mM substrate, 1 mM ATP.
From the text: as §1

B1: MK0148: SEQ ID NO: 114; H244W+S193A+N228D+L305F+S306P+I109V+C38R+F55I+Y108F+A316W+Y339M+T342S+V348I+C257R+T289S+S313T+D435G+L437R+W510R (protein)
chain: MADKNILYGPEPFYPLEDGTAGEQMFDALSRYAAIPGRIALTNAHTKENVLYEEILKLSCRLAESFKKYGLKQNDTIAVCSENSLQFFLPVIASLYLGIIVAPVNDKFVERELIHSLGIVKPRIVFCSKNTFQKVLNVKSKLKSIETIIILDLNEDLGGYQCLNNFISQNSDSNLDVKKFKPYSFNRDDQVAAIMFSSGTTGLPKGVMLTHKNIVARFSIAKDPTFGDAINPTSAILTVIPFHWGFGMMTTLGYFTCGFRVVLMHTFEEKLFLQSLQDYKVESTLLVPTLMAFLAKSALVEKYDFPHLKEIATGGWPLSKEIGEMVKKRFKLNFVRQGMGLSETTSAILITPKGDAKPGSTGKIVPLHAVKVVDPTTGKILGPNEPGELYFKGPMIMKGYYNNEEATKAIIDNDGWLRSGDIAYYDNDGHFYIVGRRKSLIKYKGYQVAPAEIEGILLQHPYIVDAGVTGIPDEAAGELPAAGVVVQTGKYLNEQIVQDYVASQVSTAKWLRGGVKFLDEIPKGSTGKIDRKVLRQMLEKHTNGHHHHHHHH
B1: the “Vmax (RLU) D/L-luciferin BrightGlo Buffer” value in data set [1] was 1,227,230 RLU. Besides, the “Vmax (RLU) D/L-luciferin Detection Reagent Buffer” value in data set [1] is recorded as 515,688 RLU. Besides, the Km in data set [2] (BrightGlo Buffer) is 0.0737 µM; in data set [2] (Detection Reagent Buffer), 0.21 µM; in data set [3] (BrightGlo Buffer) it was 8.94 µM; in data set [3] (Detection Reagent Buffer), 619 µM; in data set [5] (BrightGlo Buffer), 8.44 µM; in data set [5] (Detection Reagent Buffer) it was 48.4 µM. The “Vmax (RLU)” value in data set [2] (BrightGlo Buffer) is listed as 1,993,509 RLU; in data set [2] (Detection Reagent Buffer), 332,703 RLU; in data set [3] (BrightGlo Buffer), 359,383 RLU; in data set [3] (Detection Reagent Buffer), 26,247 RLU; in data set [5] (BrightGlo Buffer), 2,895,248 RLU; in data set [5] (Detection Reagent Buffer) it was 543,865 RLU. Besides, in data set [4], the “Vmax (RLU) CS0333 BrightGlo Buffer” value is reported as 3,525,730 RLU. Besides, in data set [4], the “Vmax (RLU) CS0333 Detection Reagent Buffer” value is listed as 2,139,740 RLU. The “Vmax (RLU) CS0280 BrightGlo Buffer” value in data set [6] was 620,182 RLU. Also, the “Vmax (RLU) CS0280 Detection Reagent Buffer” value in data set [6] was 21,505 RLU.

B2: MK0149: SEQ ID NO: 115; H244W+S193A+N228D+L305F+S306P+I109V+C38R+F55I+Y108F+A316W+Y339M+T342S+V348I+C257R+T284A+T289S+L437R (protein)
chain: MADKNILYGPEPFYPLEDGTAGEQMFDALSRYAAIPGRIALTNAHTKENVLYEEILKLSCRLAESFKKYGLKQNDTIAVCSENSLQFFLPVIASLYLGIIVAPVNDKFVERELIHSLGIVKPRIVFCSKNTFQKVLNVKSKLKSIETIIILDLNEDLGGYQCLNNFISQNSDSNLDVKKFKPYSFNRDDQVAAIMFSSGTTGLPKGVMLTHKNIVARFSIAKDPTFGDAINPTSAILTVIPFHWGFGMMTTLGYFTRGFRVVLMHTFEEKLFLQSLQDYKVESALLVPSLMAFLAKSALVEKYDFPHLKEIASGGWPLSKEIGEMVKKRFKLNFVRQGMGLSETTSAILITPKGDAKPGSTGKIVPLHAVKVVDPTTGKILGPNEPGELYFKGPMIMKGYYNNEEATKAIIDNDGWLRSGDIAYYDNDGHFYIVDRRKSLIKYKGYQVAPAEIEGILLQHPYIVDAGVTGIPDEAAGELPAAGVVVQTGKYLNEQIVQDYVASQVSTAKWLRGGVKFLDEIPKGSTGKIDRKVLRQMLEKHTNGHHHHHHHH
B2: in data set [1], the “Vmax (RLU) D/L-luciferin BrightGlo Buffer” value is on record as 416,355 RLU. In addition, the “Vmax (RLU) D/L-luciferin Detection Reagent Buffer” value in data set [1] is listed as 52,341 RLU. For the same molecule, the Km in data set [2] (BrightGlo Buffer) worked out at 0.0482 µM; in data set [2] (Detection Reagent Buffer) it was 0.26 µM; in data set [3] (BrightGlo Buffer), 5.6 µM; in data set [3] (Detection Reagent Buffer) it was 678 µM; in data set [5] (BrightGlo Buffer), 4.89 µM; in data set [5] (Detection Reagent Buffer), 48.4 µM. Besides, the “Vmax (RLU)” value is recorded as 351,895 RLU in data set [2] (BrightGlo Buffer); 33,641 RLU in data set [2] (Detection Reagent Buffer); 652,464 RLU in data set [3] (BrightGlo Buffer); 44,058 RLU in data set [3] (Detection Reagent Buffer); 1,336,251 RLU in data set [5] (BrightGlo Buffer); 353,432 RLU in data set [5] (Detection Reagent Buffer). Also, the “Vmax (RLU) CS0333 BrightGlo Buffer” value in data set [4] is reported as 1,433,640 RLU. Besides, the “Vmax (RLU) CS0333 Detection Reagent Buffer” value in data set [4] is listed as 1,270,240 RLU. The “Vmax (RLU) CS0280 BrightGlo Buffer” value in data set [6] is listed as 1,368,890 RLU. Further, in data set [6], the “Vmax (RLU) CS0280 Detection Reagent Buffer” value is 57,404 RLU.

B3: MK0151: SEQ ID NO: 116; H244W+S193A+N228D+L305F+S306P+I109V+C38R+F55I+Y108F+A316W+Y339M+T342S+V348I+S313T+D435G+L437R (protein)
chain: MADKNILYGPEPFYPLEDGTAGEQMFDALSRYAAIPGRIALTNAHTKENVLYEEILKLSCRLAESFKKYGLKQNDTIAVCSENSLQFFLPVIASLYLGIIVAPVNDKFVERELIHSLGIVKPRIVFCSKNTFQKVLNVKSKLKSIETIIILDLNEDLGGYQCLNNFISQNSDSNLDVKKFKPYSFNRDDQVAAIMFSSGTTGLPKGVMLTHKNIVARFSIAKDPTFGDAINPTSAILTVIPFHWGFGMMTTLGYFTRGFRVVLMHTFEEKLFLQSLQDYKVESTLLVPTLMAFLAKSALVEKYDFPHLKEIASGGWPLSKEIGEMVKKRFKLNFVRQGMGLSETTSAILITPRGDAKPGSTGKIVPLHAVKVVDPTTGKILGPNEPGELYFKGPMIMKGYYNNEEATKAIIDNDGWLRSGDIAYYDNDGHFYIVDRRKSLIKYKGYQVAPAEIEGILLQHPYIVDAGVTGIPDEAAGELPAAGVVVQTGKYLNEQIVQDYVASQVSTAKRLRGGVKFLDEIPKGSTGKIDRKVLRQMLEKHTNGHHHHHHHH
As to B3, the “Vmax (RLU) D/L-luciferin BrightGlo Buffer” value in data set [1] is 1,074,780 RLU. Further, the “Vmax (RLU) D/L-luciferin Detection Reagent Buffer” value in data set [1] was 249,347 RLU. Besides, the Km in data set [2] (BrightGlo Buffer) was determined as 0.0834 µM; in data set [2] (Detection Reagent Buffer) it was 0.265 µM; in data set [3] (BrightGlo Buffer) it was 4.88 µM; in data set [3] (Detection Reagent Buffer) it was 632 µM; in data set [5] (BrightGlo Buffer) it was 6.45 µM; in data set [5] (Detection Reagent Buffer), 37.6 µM. In addition, the “Vmax (RLU)” value in data set [2] (BrightGlo Buffer) is reported as 924,955 RLU; in data set [2] (Detection Reagent Buffer) it was 123,752 RLU; in data set [3] (BrightGlo Buffer) it was 534,004 RLU; in data set [3] (Detection Reagent Buffer), 58,187 RLU; in data set [5] (BrightGlo Buffer) it was 4,586,290 RLU; in data set [5] (Detection Reagent Buffer) it was 727,712 RLU. In addition, in data set [4], the “Vmax (RLU) CS0333 BrightGlo Buffer” value was 8,608,150 RLU. Also, the “Vmax (RLU) CS0333 Detection Reagent Buffer” value in data set [4] is 4,805,980 RLU. For the same molecule, the “Vmax (RLU) CS0280 BrightGlo Buffer” value in data set [6] was 1,490,130 RLU. Also, the “Vmax (RLU) CS0280 Detection Reagent Buffer” value in data set [6] is recorded as 76,615 RLU.

B4: MK0152: SEQ ID NO: 117; H244W+S193A+N228D+L305F+S306P+I109V+C38R+F55I+Y108F+A316W+Y339M+T342S+V348I+C257R+K353R+L437R+W510R (protein)
chain: MADKNILYGPEPFYPLEDGTAGEQMFDALSRYAAIPGRIALTNAHTKENVLYEEILKLSCRLAESFKKYGLKQNDTIAVCSENSLQFFLPVIASLYLGIIVAPVNDKFVERELIHSLGIVKPRIVFCSKNTFQKVLNVKSKLKSIETIIILDLNEDLGGYQCLNNFISQNSDSNLDVKKFKPYSFNRDDQVAAIMFSSGTTGLPKGVMLTHKNIVARFSIAKDPTFGDAINPTSAILTVIPFHWGFGMMTTLGYFTCGFRVVLMHTFEEKLFLQSLQDYKVESTLLVPSLMAFLAKSALVEKYDFPHLKEIASGGWPLSKEIGEMVKKRFKLNFVRQGMGLSETTSAILITPRGDAKPGSTGKIVPLHAVKVVDPTTGKILGPNEPGELYFKGPMIMKGYYNNEEATKAIIDNDGWLRSGDIAYYDNDGHFYIVGRLKSLIKYKGYQVAPAEIEGILLQHPYIVDAGVTGIPDEAAGELPAAGVVVQTGKYLNEQIVQDYVASQVSTAKRLRGGVKFLDEIPKGSTGKIDRKVLRQMLEKHTNGHHHHHHHH
For B4, in data set [1], the “Vmax (RLU) D/L-luciferin BrightGlo Buffer” value is listed as 954,983 RLU. Further, the “Vmax (RLU) D/L-luciferin Detection Reagent Buffer” value in data set [1] is 103,199 RLU. The Km in data set [2] (BrightGlo Buffer) is 0.0583 µM; in data set [2] (Detection Reagent Buffer), 0.395 µM; in data set [3] (BrightGlo Buffer), 5.74 µM; in data set [3] (Detection Reagent Buffer), 848 µM; in data set [5] (BrightGlo Buffer), 4.09 µM; in data set [5] (Detection Reagent Buffer) it was 56.8 µM. Further, the “Vmax (RLU)” value was 1,055,203 RLU in data set [2] (BrightGlo Buffer); 60,231 RLU in data set [2] (Detection Reagent Buffer); 330,383 RLU in data set [3] (BrightGlo Buffer); 10,047 RLU in data set [3] (Detection Reagent Buffer); 519,457 RLU in data set [5] (BrightGlo Buffer); 49,798 RLU in data set [5] (Detection Reagent Buffer). Besides, in data set [4], the “Vmax (RLU) CS0333 BrightGlo Buffer” value is given as 405,859 RLU. In data set [4], the “Vmax (RLU) CS0333 Detection Reagent Buffer” value is on record as 175,261 RLU. For the same molecule, the “Vmax (RLU) CS0280 BrightGlo Buffer” value in data set [6] was 484,293 RLU. For the same molecule, in data set [6], the “Vmax (RLU) CS0280 Detection Reagent Buffer” value is listed as 11,418 RLU.
